Experiment [1] has as its target T1, NANP5.5-1210 Fab-LS-Th2R nanoparticles (Plasmodium falciparum (3D7/NF54-type …, UniProt Q7K740)).
T1 construct: 5.5 NANP repeat motifs of the PfCSP central repeat (NANP5.5); 8-aa linker; Aquifex aeolicus lumazine synthase (LS) monomer; Aquifex aeolicus lumazine synthase (LS) alone, from the co-transfected LS-pHLsec plasmid; 60-mer LS nanocage; source: HEK293F, transient co-transfection, secreted, purified (StrepTrap, SEC on Superose 6); copies: + +
T1 chain: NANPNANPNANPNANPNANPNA
Briefly: BLI; Fabs immobilised on anti-human Fab-CH1 biosensors (10 μg/mL), dipped into nanoparticles; kinetics buffer PBS pH 7.4, 0.01% BSA, 0.002% Tween-20; Octet RED96. The following applies: both partners purified.

In the next experiment the target is T2, NANP6 peptide (Plasmodium falciparum (synthetic repeat …, N-terminal biotin-aminohexanoic acid tag; unmodified C-terminus).
T2 construct: PfCSP central repeat motifs; source: synthetic peptide (CPC Scientific)
T2 chain: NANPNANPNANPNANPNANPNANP
Nature of the experiment: SPR; Carterra LSA, CMD200M chip, 25°C; mAbs directly amine-coupled, PfCSP peptides as analytes (two-fold series, top 8 μg/ml) in 1X HBSTE; 1:1 Langmuir fit; KD includes avidity effect for antigens with multiple repeats. The following applies: both partners purified.

The text below walks through data of paper PMC9762590 (PLOS Pathogens, 2022).

Substitutions are numbered along the chain they refer to.

B1: 1210 Fab (Fab, V domains shown)
VH: QVQLVESGGGVVQPGRSLRLSCAASGFTFSNYGMHWVRQAPGKGLEWVAVIWYDGSKKYYADSVKGRFTISRDNSKNTLYLQMNSLRAEDTAVYYCARVRDSSDYYGDAFDIWGQGTMVTVSS
VL: DIQMTQSPSTLSASVGDRVTITCRASQSISSWLAWYQQKPGKAPKLLIYKASNLESGVPLRFSGSGSGTEFTLTISSLQPDDFATYYCQQYNNYWTFGQGTKVEIK
Regarding B1, the binding result in experiment [1] is reported as “binds”.

B2: Fab 2541 (Fab, V domains shown)
VH: QVQLVESGGGVVQPGRSLRLSCAASGFTFSSYGMHWVRQTTGKGLEWVAIIWHDGSKKYYADSVKGRLTISRDNSKNTLYLQMNSLRVEDTALYYCARVGDYSDFKYGAFDIWGQGTMVTVSS
VL: B1 VL with K45N, N53T, L60S, N93S, K102R
For the molecule B2, in experiment [1], the binding result is “binds”.

B3: monoclonal antibody (mAb) 850 (antibody, V domains shown)
VH: QVQLVESGGGVVQPGRSLRLSCAASGFTFSNFGMHWIRQSPGKGLEWVAIIWYDGSNTYYADSVKGRFTISRDNSKNTLYLQMNSLRAEDTAVYYCAKVWFGESEDNYSVDVWGQGTTVTVSS
VL: B1 VL with A13T, S31N, N53T, L60S, N92S, N93S, V103L
notes: VH of mAb 850 (IGHV3-33); human IgG1 heavy chain constant region (antibodies expressed as fully human IgG1); VK of mAb 850 (IGKV1-5); human Ig kappa constant region (antibodies expressed as fully human IgG1); IgG1, kappa; source: recombinantly expressed as fully human IgG1; re-expressed in CHO-3E7 cells, purified (MabSelect SuRe LX)
Turning to B3, the Kd in the experiment with NANP6 peptide turned out to be 0.025 nM.
